Source: the RNAGym collection of RNA variant scans (doi:10.1093/molbev/msab373)

B1: Azoarcus group I ribozyme (parent)
chain: GUGCCUUGCGCCGGGAAACCACGCAAGGGAUGGUGUCAAAUUCGGCGAAACCUAAGCGCCCGCCCGGGCGUAUGGCAACGCCGAGCCAAGCUUCGGCGCCUGCGCCGAUGAAGGUGUAGAGACUAGACGGCACCCACCUAAGGCAAACGCUAUGGUGAAGGCAUAGUCCAGGGAGUGGCGAAAGUCACACAAACCGG

Variants of: B1
Test: reverse-splicing fitness (ratio to wild type); higher = more active; in vitro selection; Mg2+ level not given
Method in brief: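 An in vitro group I ribozyme library with randomized positions was T7-transcribed and gel-purified. In triplicate, 10 pmol RNA in EPPS pH 7.5 was reacted with 50 pmoles of a 30-nt RNA substrate for 1 h at 37 °C across several added MgCl2 levels (1–48 mM), then stopped with EDTA. Products were reverse transcribed from a substrate-complementary primer, PCR-amplified and sequenced (HiSeq 4000). Fitness is a variant's read proportion after selection over that before, normalised to wild type.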

| Variant | reverse-splicing fitness |
| --- | --- |
| C82A C169A U176A | 0.015 |
| C82A A145G C150U C169A U176C | 0.0166 |
| C82A A145G C150U C169A U176A | 0.0161 |
| C82A A145G C150U C169A U176G | 0.00665 |
| C82G A111C A120C A145C C150G C169U U176A | 0.00824 |
| C82G A111C A120C A145C C150G C169U U176C | 0.0123 |
| C82A C150U C169U U176G | 0.00577 |
| C82A C150U C169U U176A | 0.0141 |
| C82A C150U C169U U176C | 0.016 |
| C82A A120U C169U U176G | 0.00156 |
| C82A A120U C169U U176A | 0.00359 |
| C82A A120U C169U U176C | 0.00453 |
| C82A A145U C169A U176C | 0.00899 |
| C82A A145U C169A U176A | 0.00948 |
| C82A A145U C169A U176G | 0.00484 |
| C82A A145C C150A C169A U176G | 0.00593 |
| C82A A145C C150A C169A U176C | 0.00566 |
| C82A A145C C150A C169A U176A | 0.0113 |
| C82A A145G C150A C169G U176A | 0.0164 |
| C82A A145G C150A C169G U176G | 0.0061 |
| C82A A145G C150A C169G U176C | 0.0281 |

| Variant | reverse-splicing fitness |
| --- | --- |
| C82A A145C C169U U176C | 0.0108 |
| C82A A145C C169U U176G | 0.00467 |
| C82A A145C C169U U176A | 0.0128 |
| C82G A111C A120C A145C | 0.0447 |
| C82G A111C A120C A145C C150A C169A U176C | 0.00933 |
| C82G A111C A120C A145C C150A C169A U176A | 0.0156 |
| C82G A111C A120C A145C C150A C169A U176G | 0.00693 |
| C82A A145G U176G | 0.113 |
| C82A A145G U176A | 0.387 |
| C82A A145G U176C | 0.488 |
| C82A C150U C169G U176C | 0.0175 |
| C82A C150U C169G U176G | 0.00542 |
| C82A C150U C169G U176A | 0.014 |
| C82A A120U C150U C169U U176A | 0.00458 |
| C82A A120U C150U C169U U176G | 0.00199 |
| C82A A120U C150U C169U U176C | 0.00368 |
| C82A A145C C150U C169A | 0.00801 |
| C82A A145C C150U C169U | 0.0111 |
| C82A A145C C150U C169G | 0.00747 |
| C82A A145C C150A U176C | 0.0306 |
| C82A A145C C150A U176G | 0.0123 |

| Variant | reverse-splicing fitness |
| --- | --- |
| C82A A145C C150A U176A | 0.0316 |
| C82A A145C C150U C169G U176C | 0.0113 |
| C82A A145C C150U C169G U176G | 0.00628 |
| C82A A145C C150U C169G U176A | 0.0196 |
| C82A A120U C169U | 0.00613 |
| C82A A120U C169A | 0.00277 |
| C82A A120U C169G | 0.00529 |
| C82A A145C C169U | 0.0141 |
| C82A A145C C169G | 0.0105 |
| C82A A145C C169A | 0.00701 |
| C82A A145G C169A U176A | 0.0185 |
| C82A A145G C169A U176C | 0.0322 |
| C82A A145G C169A U176G | 0.00573 |
| C82A A120U C150U U176C | 0.0352 |
| C82A A120U C150U U176A | 0.0194 |
| C82A A120U C150U U176G | 0.00609 |
| C82A A145U C150A C169G | 0.00813 |
| C82A A145U C150A C169A | 0.00847 |
| C82A A145U C150A C169U | 0.00955 |
| C82A A145G C150A C169A U176C | 0.0221 |
| C82A A145G C150A C169A U176G | 0.00695 |

| Variant | reverse-splicing fitness |
| --- | --- |
| C82A A145G C150A C169A U176A | 0.0195 |
| C82A A120U C150G U176C | 0.00779 |
| C82A A120U C150G U176G | 0.00281 |
| C82A A120U C150G U176A | 0.00566 |
| C82A A145C C150U C169A U176A | 0.0106 |
| C82A A145C C150U C169A U176G | 0.00598 |
| C82A A145C C150U C169A U176C | 0.00606 |
| C82A A145C C169G U176G | 0.00402 |
| C82A A145C C169G U176A | 0.0247 |
| C82A A145C C169G U176C | 0.0138 |
| C82A A145U C150A U176C | 0.0555 |
| C82A A145U C150A U176G | 0.0181 |
| C82A A145U C150A U176A | 0.0485 |
| C82A A145G C150G U176A | 0.0291 |
| C82A A145G C150G U176C | 0.0513 |
| C82A A145G C150G U176G | 0.0113 |
| C82A A145U C150G C169A | 0.00902 |
| C82A A145U C150G C169G | 0.00797 |
| C82A A145U C150G C169U | 0.00935 |
| C82A A145C C150G C169U U176C | 0.00749 |
| C82A A145C C150G C169U U176A | 0.00823 |
